{"source": "patent US20190055304A1", "about": "(published 2019)", "binders": {"B1": {"name": "TRL1338 (antibody, V domains shown)", "VH": "QLTLRESGPTLVKPTQTLTLTCTFSGFSLSTNGVGVGWIRQPPGKALEWLAIIYWDDDKRYSPSLKSRLTITKDTSKNQVVLTLTNMDPVDTGTYYCAHILGASNYWTGYLRYYFDYWGQGTLVTVST", "VL": "DIEMTQSPSVSVSPGQTARITCSGEPLAKQYAYWYQQKSGQAPVVVIYKDTERPSGIPERFSGSSSGTTVTLTISGVQAEDEADYHCESGDSSGTYPVFGGGTKLTVL"}, "B2": {"name": "TRL1337 (antibody, V domains shown)", "VH": "QVQLLESGPGLVKPSETPSLTCTVSGGSIRSYYWSWIRQPPGKGLEWIGYIYYSGSTNYNPSLKSRVTISVDMSKNQFSLKLSSVTAADTAMYYCARVYGGSGSYDFDYWGQGTLVTVSS", "VL": "DIVLTQSPSASGSPGQSVTISCTGTSSDVGGYNYVSWYQQLPGKAPKLMIYEVTKRPSGVPDRFSGSKSGNTASLTVSGLQAEDEADYYCSSFAGSNNHVVFGGGTKLTVL"}, "B3": {"name": "TRL1361 (antibody, V domains shown)", "VH": "QVQLVESGGGLAQPGGSLRLSCAASGFIFNTYAMGWVRQAPGKGLEWVSTVSAPGAGTYYTDSVKGRFIISRDNSKNILYLQMNRLRVEDTAVYYCARDQGGPAVAGARIFDYWGQGALVTVSS", "VL": "DIVLTQSPLSLSVTPGQPASISCKSSQSLLRSDGKTYLCWYLQKPGQPPQLLIYEVSNRVSGVPDRFSGSGSGTDFTLKISRVEAEDVGVYYCMQSIQLRTFGQGTKVEIKR"}, "B4": {"name": "TRL1335 (antibody, V domains shown)", "VH": "QVQLVESGAEVKKPGESLKISCKGSGYNFTSYWIGWVRQMPGKGLEWMGVIYPDDSDTRYSPSFKGQVTISADKSISTAFLQWSSLKASDTAVYHCARPPDSWGQGTLVTVSS", "VL": "DIVMTQSPATLSVSPGERATLSCRASQSVSSNLAWYQQKPGLAPRLLIVGASNRATGIPARFSGSGSGTEFTLTISSLQSEDFAFYYCQQYNNWPFTFGPGTKVDVKR"}, "B5": {"name": "TRL1330 (antibody, V domains shown)", "VH": "QVQLVESGTEVKNPGASVKVSCTASGYKFDEYGVSWVRQSPGQGLEWMGWISVYNGKTNYSQNFQGRLTLTTETSTDTAYMELTSLRPDDTAVYYCATDKNWFDPWGPGTLVTVSS", "VL": "DIVLTQSPSASGSPGQSITISCTGTNTDYNYVSWYQHHPGKAPKVIIYDVKKRPSGVPSRFSGSRSGNTATLTVSGLQTEDEADYYCVSYADNNHYVFGSGTKVTVL"}, "B6": {"name": "TRL1068 (antibody, V domains shown)", "VH": "QVQLVESGPGLVKPSETLSLTCRVSGDSNRPSYWSWIRQAPGKAMEWIGYVYDSGVTIYNPSLKGRVTISLDTSKTRFSLKLTSVIAADTAVYYCARERFDRTSYKSWWGQGTQVTVSS", "VL": "DIVLTQAPGTLSLSPGDRATLSCRASQRLGGTSLAWYQHRSGQAPRLILYGTSNRATDTPDRFSGSGSGTDFVLTISSLEPEDFAVYYCQQYGSPPYTFGQGTTLDIK"}}, "key": {"[1]": {"target": "T1, full length DNABII protein, HU-beta, from Staphylococcus aureus (Staphylococcus aureus, UniProt Q5HFV0 1-90)", "T1 construct": "mature; also called HU Sa; HU-beta of S. aureus; not shown: poly-histidine tag", "T1 sequence": "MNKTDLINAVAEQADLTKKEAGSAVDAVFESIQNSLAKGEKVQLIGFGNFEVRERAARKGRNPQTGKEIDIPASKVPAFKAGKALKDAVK", "experiment": "adsorption ELISA, antigen coated; given as 'affinity', estimated as half-maximal binding concentration"}, "[2]": {"target": "peptide 13, SGSG … (Staphylococcus aureus)", "experiment": "ELISA, biotinylated peptides on streptavidin coated plates"}, "peptide 26, […]": {"target": "peptide 26, […] (Staphylococcus aureus)", "experiment": "ELISA, biotinylated peptides on streptavidin coated plates"}, "[3]": {"target": "peptide 12, SGSG … (Staphylococcus aureus)", "experiment": "ELISA, biotinylated peptides on streptavidin coated plates"}, "[4]": {"target": "peptide 20, SGSG … (Staphylococcus aureus)", "experiment": "ELISA, biotinylated peptides on streptavidin coated plates"}, "[5]": {"target": "peptide 14, SGSG … (Staphylococcus aureus)", "experiment": "ELISA, biotinylated peptides on streptavidin coated plates"}, "[6]": {"target": "peptide 18, SGSG … (Staphylococcus aureus)", "experiment": "ELISA, biotinylated peptides on streptavidin coated plates"}, "[7]": {"target": "peptide 19, SGSG … (Staphylococcus aureus)", "experiment": "ELISA, biotinylated peptides on streptavidin coated plates"}, "[8]": {"target": "peptide 6, SGSG … (Staphylococcus aureus)", "experiment": "ELISA, biotinylated peptides on streptavidin coated plates"}, "[9]": {"target": "T2, DNABII protein from Haemophilus influenzae (IHF) (Haemophilus influenzae)", "T2 construct": "mature; also called H. influenzae; IHF from Haemophilus influenzae", "T2 sequence (P43723 whole entry)": "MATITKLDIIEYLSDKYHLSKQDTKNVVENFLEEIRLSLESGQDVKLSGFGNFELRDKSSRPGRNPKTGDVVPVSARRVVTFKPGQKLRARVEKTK", "experiment": "adsorption ELISA, antigen coated; printed as 'Affinity (pM)', half-maximal binding concentration"}, "[10]": {"target": "T3, DNABII protein from Acinetobacter baumannii (Acinetobacter baumannii)", "T3 construct": "mature", "T3 sequence (B7I698 whole entry)": "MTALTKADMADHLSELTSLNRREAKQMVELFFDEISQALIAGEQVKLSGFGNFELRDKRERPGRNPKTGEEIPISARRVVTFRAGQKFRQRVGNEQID", "experiment": "adsorption ELISA, antigen coated; printed as 'Affinity (pM)', half-maximal binding concentration"}, "[11]": {"target": "T4, DNABII protein from Pseudomonas aeruginosa (IHF-alpha by the legend of FIGS. 7A-7C) (Pseudomonas aeruginosa, UniProt Q51472 2-100)", "T4 construct": "mature; also called Pa; P. aeruginosa; not shown: poly-histidine tag", "T4 sequence": "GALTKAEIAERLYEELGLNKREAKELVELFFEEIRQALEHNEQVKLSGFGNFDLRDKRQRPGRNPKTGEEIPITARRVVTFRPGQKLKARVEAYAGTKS", "experiment": "ELISA at pH 7.5; printed as 'Affinity (nM)'"}, "[12]": {"target": "T5, DNABII protein from Klebsiella pneumoniae (IHF; IHF-alpha by the legend of FIGS. 7A-7C) (Klebsiella pneumoniae, UniProt A6TAI1 1-99)", "T5 construct": "also called Kp; K. pneumoniae", "T5 sequence": "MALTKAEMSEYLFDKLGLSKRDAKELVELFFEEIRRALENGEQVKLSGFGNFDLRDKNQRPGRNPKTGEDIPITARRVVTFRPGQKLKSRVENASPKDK", "experiment": "ELISA at pH 7.5; printed as 'Affinity (nM)'"}, "[13]": {"target": "T1, full length DNABII protein, HU-beta, …", "experiment": "ELISA at pH 7.5; printed as 'Affinity (nM)'"}, "[14]": {"target": "T4, DNABII protein from Pseudomonas …", "experiment": "ELISA at pH 6.5; printed as 'Affinity (nM)'"}, "[15]": {"target": "T5, DNABII protein from Klebsiella …", "experiment": "ELISA at pH 6.5; printed as 'Affinity (nM)'"}, "[16]": {"target": "T1, full length DNABII protein, HU-beta, …", "experiment": "ELISA at pH 6.5; printed as 'Affinity (nM)'"}, "[17]": {"target": "T4, DNABII protein from Pseudomonas …", "experiment": "ELISA at pH 5.5; printed as 'Affinity (nM)'"}, "[18]": {"target": "T5, DNABII protein from Klebsiella …", "experiment": "ELISA at pH 5.5; printed as 'Affinity (nM)'"}, "[19]": {"target": "T1, full length DNABII protein, HU-beta, …", "experiment": "ELISA at pH 5.5; printed as 'Affinity (nM)'"}, "[20]": {"target": "T4, DNABII protein from Pseudomonas …", "experiment": "ELISA at pH 2.5; printed as 'Affinity (nM)'"}, "[21]": {"target": "T5, DNABII protein from Klebsiella …", "experiment": "ELISA at pH 2.5; printed as 'Affinity (nM)'"}, "[22]": {"target": "T1, full length DNABII protein, HU-beta, …", "experiment": "ELISA at pH 2.5; printed as 'Affinity (nM)'"}, "[23]": {"target": "T4, DNABII protein from Pseudomonas …", "experiment": "ELISA at pH 4.5; printed as 'Affinity (nM)'"}, "[24]": {"target": "T5, DNABII protein from Klebsiella …", "experiment": "ELISA at pH 4.5; printed as 'Affinity (nM)'"}, "[25]": {"target": "T1, full length DNABII protein, HU-beta, …", "experiment": "ELISA at pH 4.5; printed as 'Affinity (nM)'"}, "[26]": {"target": "T4, DNABII protein from Pseudomonas …", "experiment": "ELISA at pH 3.5; printed as 'Affinity (nM)'"}, "[27]": {"target": "T5, DNABII protein from Klebsiella …", "experiment": "ELISA at pH 3.5; printed as 'Affinity (nM)'"}, "[28]": {"target": "T1, full length DNABII protein, HU-beta, …", "experiment": "ELISA at pH 3.5; printed as 'Affinity (nM)'"}}}
{"binder": "B1", "values": [{"measurement": "EC50", "setting": "[1]", "value": 42000, "unit": "pM"}]}
{"binder": "B2", "values": [{"measurement": "EC50", "setting": "[1]", "value": 6000, "unit": "pM"}]}
{"binder": "B3", "values": [{"measurement": "EC50", "setting": "[1]", "value": 6600, "unit": "pM"}]}
{"binder": "B4", "values": [{"measurement": "binding result", "setting": "[2]", "value": "no binding"}, {"measurement": "binding result", "setting": "peptide 26, […]", "value": "no binding"}, {"measurement": "binding result", "setting": "[3]", "value": "no binding"}, {"measurement": "binding result", "setting": "[4]", "value": "no binding"}, {"measurement": "binding result", "setting": "[5]", "value": "no binding"}, {"measurement": "binding result", "setting": "[6]", "value": "no binding"}, {"measurement": "binding result", "setting": "[7]", "value": "no binding"}, {"measurement": "binding result", "setting": "[8]", "value": "no binding"}]}
{"binder": "B5", "values": [{"measurement": "EC50", "setting": "[9]", "value": 26, "unit": "pM"}, {"measurement": "EC50", "setting": "[10]", "value": 17, "unit": "pM"}]}
{"binder": "B6", "values": [{"measurement": "EC50", "setting": "[11]", "value": 5, "unit": "pM"}, {"measurement": "EC50", "setting": "[12]", "value": 6, "unit": "pM"}, {"measurement": "EC50", "setting": "[13]", "value": 10, "unit": "pM"}, {"measurement": "EC50", "setting": "[14]", "value": 5, "unit": "pM"}, {"measurement": "EC50", "setting": "[15]", "value": 6, "unit": "pM"}, {"measurement": "EC50", "setting": "[16]", "value": 12, "unit": "pM"}, {"measurement": "EC50", "setting": "[17]", "value": 6, "unit": "pM"}, {"measurement": "EC50", "setting": "[18]", "value": 9, "unit": "pM"}, {"measurement": "EC50", "setting": "[19]", "value": 12, "unit": "pM"}, {"measurement": "EC50", "setting": "[20]", "value": 2100, "unit": "pM"}, {"measurement": "EC50", "setting": "[21]", "value": 2600, "unit": "pM"}, {"measurement": "EC50", "setting": "[22]", "value": 3500, "unit": "pM"}, {"measurement": "EC50", "setting": "[23]", "value": 9, "unit": "pM"}, {"measurement": "EC50", "setting": "[24]", "value": 50, "unit": "pM"}, {"measurement": "EC50", "setting": "[25]", "value": 12, "unit": "pM"}, {"measurement": "EC50", "setting": "[26]", "value": 260, "unit": "pM"}, {"measurement": "EC50", "setting": "[27]", "value": 3000, "unit": "pM"}, {"measurement": "EC50", "setting": "[28]", "value": 360, "unit": "pM"}, {"measurement": "EC50", "setting": "[9]", "value": 5000, "unit": "pM"}, {"measurement": "EC50", "setting": "[10]", "value": 10, "unit": "pM"}]}
